Measurements taken from the supplement of paper PMC9112550, “Optimization of the antimicrobial peptide Bac7 by deep mutational scanning” (BMC Biology, 2022).

These sequences were tested on Escherichia coli TOP10 (assay: shrunken log2 fold change of peptide-encoding DNA abundance (4.5 h post-induction vs induction); higher = less antimicrobial activity (less host growth inhibition)). Settings: time post-induction: 4.5 h; library: site-saturation at positions 5, 18, 19, 20.
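Also: peptides expressed intracellularly from a pBAD plasmid library in pooled LB shake-flask culture, induced with 0.3% L-arabinose, DNA abundance read by NGS, three biological replicates, DESeq2 with apeglm shrinkage.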

Row | Sequence | shrunken log2 fold change
1 | RRIRDRPPRLPRPRPRPSWYPRP | 0.0397
2 | RRIRDRPPRLPRPRPRPSYAPRP | -0.0918
3 | RRIRDRPPRLPRPRPRPSYYPRP | -0.0757
4 | RRIRDRPPRLPRPRPRPTAAPRP | 0.457
5 | RRIRDRPPRLPRPRPRPTAKPRP | -0.00144
6 | RRIRDRPPRLPRPRPRPTANPRP | 0.877
7 | RRIRDRPPRLPRPRPRPTCFPRP | 0.0704
8 | RRIRDRPPRLPRPRPRPTDMPRP | 0.284
9 | RRIRDRPPRLPRPRPRPTDWPRP | 0.516
10 | RRIRDRPPRLPRPRPRPTDYPRP | -0.0921
11 | RRIRDRPPRLPRPRPRPTEHPRP | -0.109
12 | RRIRDRPPRLPRPRPRPTEMPRP | 0.367
13 | RRIRDRPPRLPRPRPRPTFNPRP | -0.0925
14 | RRIRDRPPRLPRPRPRPTHHPRP | 0.224
15 | RRIRDRPPRLPRPRPRPTHPPRP | 0.263
16 | RRIRDRPPRLPRPRPRPTHYPRP | -0.103
17 | RRIRDRPPRLPRPRPRPTIGPRP | -0.0292
18 | RRIRDRPPRLPRPRPRPTKIPRP | 0.0599
19 | RRIRDRPPRLPRPRPRPTKPPRP | -0.23
20 | RRIRDRPPRLPRPRPRPTLAPRP | 0.933
21 | RRIRDRPPRLPRPRPRPTLCPRP | 0.33
22 | RRIRDRPPRLPRPRPRPTMEPRP | 0.335
23 | RRIRDRPPRLPRPRPRPTMPPRP | -0.121
24 | RRIRDRPPRLPRPRPRPTNAPRP | 0.182
25 | RRIRDRPPRLPRPRPRPTNPPRP | -0.417

Row | Sequence | shrunken log2 fold change
26 | RRIRDRPPRLPRPRPRPTNSPRP | 0.115
27 | RRIRDRPPRLPRPRPRPTPDPRP | 0.536
28 | RRIRDRPPRLPRPRPRPTQEPRP | 0.604
29 | RRIRDRPPRLPRPRPRPTQGPRP | 0.797
30 | RRIRDRPPRLPRPRPRPTQKPRP | 0.268
31 | RRIRDRPPRLPRPRPRPTSNPRP | 0.24
32 | RRIRDRPPRLPRPRPRPTSRPRP | 0.208
33 | RRIRDRPPRLPRPRPRPTSSPRP | 0.058
34 | RRIRDRPPRLPRPRPRPTTIPRP | -0.121
35 | RRIRDRPPRLPRPRPRPTTMPRP | 0.0275
36 | RRIRDRPPRLPRPRPRPTTVPRP | 0.258
37 | RRIRDRPPRLPRPRPRPTVRPRP | 0.0184
38 | RRIRDRPPRLPRPRPRPTWLPRP | 0.909
39 | RRIRDRPPRLPRPRPRPVCMPRP | 0.219
40 | RRIRDRPPRLPRPRPRPVCPPRP | -0.153
41 | RRIRDRPPRLPRPRPRPVEFPRP | -0.0374
42 | RRIRDRPPRLPRPRPRPVHCPRP | -0.0301
43 | RRIRDRPPRLPRPRPRPVIYPRP | 0.011
44 | RRIRDRPPRLPRPRPRPVKMPRP | -0.0606
45 | RRIRDRPPRLPRPRPRPVMEPRP | 0.532
46 | RRIRDRPPRLPRPRPRPVMIPRP | 0.0644
47 | RRIRDRPPRLPRPRPRPVNQPRP | 0.0383
48 | RRIRDRPPRLPRPRPRPVPWPRP | 0.189
49 | RRIRDRPPRLPRPRPRPVRDPRP | 0.203
50 | RRIRDRPPRLPRPRPRPVSGPRP | 0.088

Row | Sequence | shrunken log2 fold change
51 | RRIRDRPPRLPRPRPRPVSVPRP | -0.0329
52 | RRIRDRPPRLPRPRPRPVTEPRP | 0.0911
53 | RRIRDRPPRLPRPRPRPVWCPRP | 0.162
54 | RRIRDRPPRLPRPRPRPVYVPRP | -0.563
55 | RRIRDRPPRLPRPRPRPWACPRP | 0.0329
56 | RRIRDRPPRLPRPRPRPWARPRP | -0.0626
57 | RRIRDRPPRLPRPRPRPWCRPRP | 0.0772
58 | RRIRDRPPRLPRPRPRPWDSPRP | -0.000687
59 | RRIRDRPPRLPRPRPRPWFAPRP | -0.0921
60 | RRIRDRPPRLPRPRPRPWGAPRP | 0.305
61 | RRIRDRPPRLPRPRPRPWMCPRP | -0.0722
62 | RRIRDRPPRLPRPRPRPWMSPRP | -0.376
63 | RRIRDRPPRLPRPRPRPWNEPRP | -0.195
64 | RRIRDRPPRLPRPRPRPWPEPRP | -0.0683
65 | RRIRDRPPRLPRPRPRPWPLPRP | 0.00172
66 | RRIRDRPPRLPRPRPRPWPVPRP | 0.531
67 | RRIRDRPPRLPRPRPRPWSEPRP | -0.228
68 | RRIRDRPPRLPRPRPRPWSVPRP | 0.0902
69 | RRIRDRPPRLPRPRPRPWTAPRP | -0.0482
70 | RRIRDRPPRLPRPRPRPWTEPRP | 0.0384
71 | RRIRDRPPRLPRPRPRPWTGPRP | -0.118
72 | RRIRDRPPRLPRPRPRPWVAPRP | -0.0114
73 | RRIRDRPPRLPRPRPRPWWIPRP | -0.0075
74 | RRIRDRPPRLPRPRPRPWYSPRP | -0.0808
75 | RRIRDRPPRLPRPRPRPYATPRP | 0.0348

Row | Sequence | shrunken log2 fold change
76 | RRIRDRPPRLPRPRPRPYCEPRP | -0.42
77 | RRIRDRPPRLPRPRPRPYCQPRP | -0.226
78 | RRIRDRPPRLPRPRPRPYFFPRP | -0.287
79 | RRIRDRPPRLPRPRPRPYFLPRP | -0.49
80 | RRIRDRPPRLPRPRPRPYFTPRP | -0.573
81 | RRIRDRPPRLPRPRPRPYGHPRP | -0.012
82 | RRIRDRPPRLPRPRPRPYGKPRP | -0.511
83 | RRIRDRPPRLPRPRPRPYGYPRP | -0.575
84 | RRIRDRPPRLPRPRPRPYHQPRP | -0.0205
85 | RRIRDRPPRLPRPRPRPYIPPRP | -0.456
86 | RRIRDRPPRLPRPRPRPYKDPRP | -0.221
87 | RRIRDRPPRLPRPRPRPYLWPRP | -0.0398
88 | RRIRDRPPRLPRPRPRPYMVPRP | 0.0212
89 | RRIRDRPPRLPRPRPRPYMWPRP | 0.0589
90 | RRIRDRPPRLPRPRPRPYNPPRP | -0.309
91 | RRIRDRPPRLPRPRPRPYPMPRP | -0.348
92 | RRIRDRPPRLPRPRPRPYPVPRP | 0.00705
93 | RRIRDRPPRLPRPRPRPYQAPRP | -0.0283
94 | RRIRDRPPRLPRPRPRPYSEPRP | -0.0337
95 | RRIRDRPPRLPRPRPRPYTFPRP | -0.0443
96 | RRIRDRPPRLPRPRPRPYTQPRP | -0.165
97 | RRIRERPPRLPRPRPRPAAAPRP | 0.436
98 | RRIRERPPRLPRPRPRPAAYPRP | -0.0475
99 | RRIRERPPRLPRPRPRPADIPRP | 0.033
100 | RRIRERPPRLPRPRPRPAELPRP | -0.187

Row | Sequence | shrunken log2 fold change
101 | RRIRERPPRLPRPRPRPAHPPRP | -0.0581
102 | RRIRERPPRLPRPRPRPAHRPRP | 0.0394
103 | RRIRERPPRLPRPRPRPAHSPRP | -0.159
104 | RRIRERPPRLPRPRPRPAIAPRP | 0.0488
105 | RRIRERPPRLPRPRPRPAKPPRP | -0.248
106 | RRIRERPPRLPRPRPRPAMNPRP | -0.28
107 | RRIRERPPRLPRPRPRPAPEPRP | 0.236
108 | RRIRERPPRLPRPRPRPAQDPRP | 0.00521
109 | RRIRERPPRLPRPRPRPAQSPRP | 0.0517
110 | RRIRERPPRLPRPRPRPAQVPRP | -0.149
111 | RRIRERPPRLPRPRPRPARCPRP | 0.114
112 | RRIRERPPRLPRPRPRPARRPRP | 0.539
113 | RRIRERPPRLPRPRPRPATYPRP | -0.275
114 | RRIRERPPRLPRPRPRPAWHPRP | 0.324
115 | RRIRERPPRLPRPRPRPAYQPRP | 0.0953
116 | RRIRERPPRLPRPRPRPCEIPRP | -0.318
117 | RRIRERPPRLPRPRPRPCFFPRP | -0.331
118 | RRIRERPPRLPRPRPRPCGAPRP | 0.469
119 | RRIRERPPRLPRPRPRPCKVPRP | -0.00382
120 | RRIRERPPRLPRPRPRPCLDPRP | -0.0689
121 | RRIRERPPRLPRPRPRPCMCPRP | -1.03
122 | RRIRERPPRLPRPRPRPCMLPRP | -0.241
123 | RRIRERPPRLPRPRPRPCMQPRP | -0.133
124 | RRIRERPPRLPRPRPRPCPQPRP | -0.232
125 | RRIRERPPRLPRPRPRPCSWPRP | -0.0335

Row | Sequence | shrunken log2 fold change
126 | RRIRERPPRLPRPRPRPCTCPRP | -0.00884
127 | RRIRERPPRLPRPRPRPCTVPRP | -0.0354
128 | RRIRERPPRLPRPRPRPCVEPRP | -0.11
129 | RRIRERPPRLPRPRPRPCWHPRP | -0.523
130 | RRIRERPPRLPRPRPRPCYAPRP | -0.383
131 | RRIRERPPRLPRPRPRPCYDPRP | -1.93
132 | RRIRERPPRLPRPRPRPCYKPRP | -0.901
133 | RRIRERPPRLPRPRPRPDDRPRP | -0.135
134 | RRIRERPPRLPRPRPRPDFTPRP | -0.233
135 | RRIRERPPRLPRPRPRPDIDPRP | -0.191
136 | RRIRERPPRLPRPRPRPDIGPRP | -0.0541
137 | RRIRERPPRLPRPRPRPDKMPRP | -0.0703
138 | RRIRERPPRLPRPRPRPDLKPRP | -0.108
139 | RRIRERPPRLPRPRPRPDNDPRP | -0.259
140 | RRIRERPPRLPRPRPRPDNEPRP | -0.0338
141 | RRIRERPPRLPRPRPRPDNMPRP | -0.2
142 | RRIRERPPRLPRPRPRPDNQPRP | -0.459
143 | RRIRERPPRLPRPRPRPDQAPRP | -0.00195
144 | RRIRERPPRLPRPRPRPDQDPRP | -0.00875
145 | RRIRERPPRLPRPRPRPDRPPRP | -0.165
146 | RRIRERPPRLPRPRPRPDRYPRP | -0.00433
147 | RRIRERPPRLPRPRPRPDTHPRP | -0.532
148 | RRIRERPPRLPRPRPRPDWDPRP | -0.248
149 | RRIRERPPRLPRPRPRPDYGPRP | -0.015
150 | RRIRERPPRLPRPRPRPDYKPRP | -0.31
